# According to the supplement of paper PMC12764529:
# ± gives the half width of the 95% confidence interval.
# Experiment: folding stability dG unfold (combined trypsin and chymotrypsin); higher = more stable
# Procedure, shortened: (§1)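 Unfolding free energy was derived, per protease or combined, against a sequence-predicted unfolded-state K50 and a shared folded-state K50, starting from K50 inferred by Bayesian fitting of sequencing counts. Digestion with trypsin and chymotrypsin was carried out on designed mini-proteins under 80 residues without cysteine in a PA-tagged cDNA display construct. Only designs with AlphaFold2 dimer inter-PAE above 15 were kept.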
row,Sequence,folding stability dG unfold [kcal/mol]
1,SAGGSAGGSAMITTPKGERFEVPLRLTPDGRLEVLVVTDRPDDPEVRELAERLARELAERLSAGGSAGGSAG [r3_163_TrMRF],0.484 ± 0.14
2,SAGGLLVADEAGVPLSPVPPVPPIPVQVTFPDGTKVTIEYYPGLNEVKVEYEGDDPAKVAEIVKEILKSAGG [r13_701_JUSTAS],0.443 ± 0.13
3,SMKIVEVEVFEDPETGKLVVIVKLDGEEVVEVEEGEKVEIEVEPGDTLLVFVVDAETGEIKEEKEIKVEESA [r9_209_TrROS_Hall],1.11 ± 0.16
4,SAGMKPGEPITLVLPDGVVIPIKINPNGGVEIDDIEPPPDGTYNMDARHPNNGKEITLNIKLPPGFQILSAG [r5_394_TrROS],0.95 ± 0.43
5,SAGGSAGGSAGSKDTMYLLKVKDLGENELKETYIEVPAEKVQEVIDALSSDPNLEIEVIPSAGGSAGGSAGG [r17_50_TrMRF],1.11 ± 0.064
6,SAGIEEEVRKLFPDRELEVKVKEKRLKAPNGVPVTLYEVTVTFPDGSRYKLTLTKTPNSVTLSVTPLDASAG [r14_28_JUSTAS],3.18 ± 0.17
7,MDDVVRVVLPVRVRIRDPVAPDRPEREVEILLERDVPLDEESLEELLEEAERAAEELARALGGEEAEVEPVS [r1_300_TrMRF],1.15 ± 0.089
8,SAGGSAGGSAEVEIEFVSYDPSTGRLVRKRVKLKLLPDPKGGPVEVVEVEVDPGGPVPAGASAGGSAGGSAG [r3_397_TrMRF],2.11 ± 0.12
9,SAGGIAEAIGEAIAKAPGVAEVEVDIEITKIEPTPGDGAYAHIDIRVRARHPVTGEEVELRFDIVFPLDSAG [r5_176_TrMRF],3.05 ± 0.17
10,SAGGDPETPTTITAPVDPATGTTTWVVNDGSSTSTIPSSLSLEELKKLGLTKAEPLPDGTLRFTILASAGGS [r8_382_JUSTAS],0.495 ± 0.053
11,SAKAELEIKFPGWKVTVEIEDVDPKNDMVKLKAFFRNGWVFTQTVNPDDGKIEIPIIPVKPDPDGKWKFSAG [r14_466_TrROS],1.35 ± 0.091

# Experiment: folding stability dG unfold from chymotrypsin proteolysis; higher = more stable
# Procedure, shortened: as §1
row,Sequence,folding stability dG unfold [kcal/mol]
1,SAGGSATIEEIAQEIADNLPPGRKYRAKIYYDGEERTYEFRNPNGFKINITWKNGKIRSIDIEPRPSAGGSA [r15_175_TrROS],2.01 ± 0.16
2,SMIKIKLKNGMEITIEKTPEKVKIKLKATGKEIELPLEELENMTEEELLEKLRKLAEELGMEVEEVEIEPSA [r9_1211_TrROS_Hall],3.43 ± 0.083
3,SAGGMNVSYLFSKSVPKEEIEAYLKKLDPNKKYKFEELEPEEIEKLPESIEVIEKPVDETLRLVLVEESAGG [r13_649_JUSTAS],0.765 ± 0.11
4,SAGGSAGGKKEIKIYLVSDLPEEDAIETAEKIKKGLAEELGVSPEELNITVEVAILDPENLELNPESAGGSA [r15_918_TrMRF],0.0161 ± 0.048
5,SAGGSAGGSAMLENARPFPIDLPTKYRLRIVLPDGRVLELEYDPKSGVPRLRVVPVEEALKRSAGGSAGGSA [r18_247_TrMRF],1.59 ± 0.033
6,SAGGPPWVRVVDVRIEPVEDGGERRITLTFPPDVTLEEVRERVREMLPPGAEAELTVERVEVRPVLASAGGS [r16_393_JUSTAS],1.56 ± 0.019
7,SAGGSAGGSAKKVKIEEKDGELTITVEPGEKVLIVYPDGTVEEVEVKEGDTITLPPGAKVLPSAGGSAGGSA [r18_452_TrROS_Hall],1.63 ± 0.12
8,SAGMVEVTVTIIPKKVKDKWVNEAVVSITVPGGPTSTITMPFGSKEEAIKYLKEKGLEVSEENVSVEIESAG [r5_233_JUSTAS],3.395 ± 0.028
9,SAMEVIELEFPSVEELEAALKEKFNVEVEKLPDGTKRIKVEVDGELVLIEITDDKVRIRIISKEELEKLSAG [r14_402_TrROS_Hall],1.53 ± 0.041
10,SMYVIETSANKTYTVNVPPDGLVTITYPDGSTETRKFTSEEDLEAFAEELSKKYPDAPATIKPVPLEELGSA [r9_1206_JUSTAS],0.473 ± 0.26
11,SAGGSAPDWKIVDIEPTDNSITITVEAPPGVRVMIFNPGNGKVQHRPFPPGDTITIPPRMYIMVWVSAGGSA [r15_418_TrROS],3.121 ± 0.03
12,SAGPKVKLIKAEFFPDGRLVVYAEVESSNGEPAFAVGVFDPRNPNKAHVKVYNPSTGKVSEFEVTVTPGSAG [r5_345_TrMRF],3.24 ± 0.042
13,SAGGSKKVKIKITKIEIFPNGTIKVTVKNEDGSEVTITITKNKDGKYKIKIKNKKTKKIFEFEIPLSAGGSA [r2_361_TrROS_Hall],3.1 ± 0.06
14,SAGGSAGGSAGGLPEDDNYVRVKITFTIMMMEFDPKNGKMQMFPISIEIEIYIPPGAELSAGGSAGGSAGGS [r10_133_TrROS],3.6 ± 0.25
15,SAGGSFDPVEITTLEDGTIKILAKDPNTNKLFITTLKAKSIKTSSLGNGKTITTIPHEKVEESEELPSAGGS [r16_615_JUSTAS],-0.0729 ± 0.51
16,SAGDSVVIPFRLPPENLSPEELLEWIIDEVKEAAKAGLPHKVTIQVPYPGKPWYITIDPKNGEIEIVPSAGG [r19_204_TrROS],1.66 ± 0.085
17,SAGGSAGGSASEIMDEFPNLEIDNVNPDHGMMIIKWPDGWYWRVNVGNGEIEPVSPEDLEDMSAGGSAGGSA [r18_381_TrROS],0.983 ± 0.083
18,SAGGSAGGSSLEEIAKKLGLKPGMRVRLSDGKVLEVPSLDDLKAALEAGLSLEELKKIEIEPVSAGGSAGGS [r12_430_TrROS_Hall],1.68 ± 0.04
19,SAGGSAGGSAGEVEFELTVKLTVTHPSGGKSEIEVPVKITLPVVDISKEILESNPEVVKKANSAGGSAGGSA [r18_114_TrMRF],-0.964 ± 0.33
20,SAGMGSDVPVLTAVLSVLNPETGEEVTIEVPGRNDYGEGKLIRPVSPEDLLAAALAVADALLKDPSLKASAG [r5_426_TrMRF],0.24 ± 0.22
21,SPNMQPVEMEFKIKVPGKPVDIKIEMWRMPDGQTRMDIRYPDGRSIMFNPSNGSIKIYDPKDGKPLAEISSA [r9_970_TrROS],1.47 ± 0.073
